Results reported in patent US20250355001A1 (GTINVENT, published 2025).

Key:
[1] = molecular target: T1, full length human tau protein 2N4R (hT40) (human, UniProt P10636 1-758); test: Biacore
T1 construct: recombinant; also called T441
Protocol: (§1) The capture antibody was diluted 1/100 in 10 mM Sodium acetate buffer pH 5.0 and passed over the activated chip surface for a period of at least 420 s. Final ligand immobilisation levels over 12,000 RU were deemed to be satisfactory.
(§2) The scAb to be tested was added only to flow cell 2 so that flow cell 1 could act as a control to subtract any interaction with the analyte and the chip surface. […] The multi-cycle protocol was as follows-Three start-up cycles composed of an initial capture, to the desired level, of the scAb to be tested was performed followed by a 30 s injection of glycine buffer pH 2.0 after each cycle to regenerate the chip surface. […] The target was added for a 120 s association period and 420 s dissociation period followed by another regeneration, 30 s injection of glycine buffer pH 2.0 in between each cycle.
(§3) The single cycle kinetics protocol was similar and utilised the same level of scAb capture. […] In single cycle kinetics the regeneration step was performed only after the final analyte concentration was added. Binding responses were analysed in Biacore X100 evaluation software and data fitted to a 1:1 binding model to obtain kinetic and affinity characterisation.

[2] = molecular target: T1, full length human tau protein 2N4R …; test: SPR, summary table
Protocol: as §1, §2, §3

[3] = molecular target: T1, full length human tau protein 2N4R …; test: SPR, scAb captured, tau analyte
Protocol: as §1, §2, §3

[4] = molecular target: T1, full length human tau protein 2N4R …; test: sandwich ELISA, S1D12 mAb capture, scAb detection
Protocol: Full length tau (hT40), at 1 μg/ml starting concentration was added to designated wells and double diluted across rest of the plates and left to incubate at R/T for 1 h. A series of detection scAbs with varying epitope recognition properties were added at 10 μg/ml to designated wells (FIG. 22). For colourimetric detection HRP conjugated anti-HuCk secondary antibody was used and the resulting immunoreaction was developed and absorbance at 450 nm measured as described previously. Cut-off point for a positive binding event was an absorbance value of 0.3 following background subtraction. In order to enhance the assay sensitivity, a chemiluminescent detection method was adopted where 50 μL SuperSignal ELISA Femto Substrate (Thermo Scientific) was added to each well following incubation with anti-HuCK HRP antibody and subsequent washing. The luminescence was read using Clariostar Plus microplate reader. A further modification to this protocol was done where various detection scAbs were directly conjugated with HRP and detected using chemiluminescent protocol as before.

[5] = molecular target: T1, full length human tau protein 2N4R …; test: SPR, hT40 immobilised, mAb analyte
Protocol: (§4) For anti-tau mAb SPR measurements, htau40 was conjugated to the surface of a CM5 sensor chip using amine coupling as explained previously. Briefly, 2 μg/mL htau40 in 10 mM Sodium acetate buffer (pH 4.0) was passed over the activated chip surface (EDC/NHS) in flow cell 2 for a period for 45 s followed by blocking with 1 M ethanolamine-HCl PH 8.5. Flow cell 1 was set up as reference control and blocked simultaneously. Final immobilisation level of htau40 (Rmax) was approximately 250 RU. […] The mAb was added for a 120 s association period and 600 s dissociation period followed by a regeneration cycle of 30 s injection of glycine buffer pH 1.5 in between each cycle. Binding responses were analysed in Biacore X100 evaluation software and data fitted to a 1:1 binding model to obtain kinetic and affinity characterisation.
For anti-tau mAb SPR measurements (Biacore X100™) and epitope mapping, the same methodologies described above (see Example 16) were followed.

[6] = molecular target: T1, full length human tau protein 2N4R …; test: SPR, hT40 immobilised, mAb analyte; remark: listed apart in the source
Protocol: as §4

[7] = molecular target: dGA (tau 297-390) (human, UniProt P10636 614-707); test: SPR, scAb captured, tau analyte
Protocol: as §1, §2, §3

T1 sequence (P10636 other isoform, or with tags, fused parts or gaps limits assumed): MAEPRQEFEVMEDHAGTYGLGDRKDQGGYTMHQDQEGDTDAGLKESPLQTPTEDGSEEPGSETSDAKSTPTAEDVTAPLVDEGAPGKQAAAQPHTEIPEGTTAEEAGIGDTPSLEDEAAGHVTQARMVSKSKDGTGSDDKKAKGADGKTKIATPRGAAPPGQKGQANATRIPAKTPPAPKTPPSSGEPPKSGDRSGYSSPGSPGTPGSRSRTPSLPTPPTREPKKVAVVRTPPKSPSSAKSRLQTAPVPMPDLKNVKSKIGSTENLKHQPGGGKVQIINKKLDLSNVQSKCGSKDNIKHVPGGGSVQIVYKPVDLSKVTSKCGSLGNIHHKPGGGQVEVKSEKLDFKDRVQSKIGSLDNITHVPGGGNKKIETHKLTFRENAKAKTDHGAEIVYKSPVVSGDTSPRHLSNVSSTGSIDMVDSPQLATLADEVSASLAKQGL
Chain of dGA (tau 297-390) (P10636 614-707 limits assumed): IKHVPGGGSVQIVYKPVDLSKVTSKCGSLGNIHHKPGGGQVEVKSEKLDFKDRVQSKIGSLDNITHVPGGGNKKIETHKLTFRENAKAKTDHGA

B1: CC7 scAb (scFv, not shown: small tags and cut ends)
scFv: QVQLQESGPSLVKPSQTLSLTCTVSGFSLTSNAVIWVRQAPGKAPEWVALIDVDGDAAYDPALKSRLSITRDTSKSQVSLSLRSVTTEDTAVYYCARDYGSWGYVSDIDYWGPGLLVTVSSEGKSSGASGESKVDDRVVRTQPSSVSGSLGQRVSITCSGSYITGSSVGWFQQVPGSGLKTVIYDNNDRPSGVPDRFSGSKSGDTATLTISSLQAEDEADYYCASYDTSNIGLFGSGTRLTVLG
notes: scAb
Kd [1]: 1.2 nM | Kd [2]: 1.23 nM | Kd [3]: 1.23 nM | koff [3]: 0.000366 s⁻¹ | kon [3]: 296000 M⁻¹ s⁻¹ | LoD chemiluminescence detection [4]: 3.33 ng/mL | LoD colourimetric detection [4]: 6 ng/mL

B2: 3aH6 mAb (antibody)
heavy: QVQLQESGPSLVKPSQTLSLTCTVSGFSLSSNGVGWVRQAPGKVPEWLGDISSVGKKYANPALKSRLSFTRDTSKSQVSLSLSSVTTEDTAVYYCVKCRDGGVTYGYDIDYWGPGLLVTASSAKTTAPSVYPLAPVCGDTTGSSVTLGCLVKGYFPEPVTLTWNSGSLSSGVHTFPAVLQSDLYTLSSSVTVTSSTWPSQSITCNVAHPASSTKVDKKIEPRGPTIKPCPPCKCPAPNLLGGPSVFIFPPKIKDVLMISLSPIVTCVVVDVSEDDPDVQISWFVNNVEVHTAQTQTHREDYNSTLRVVSALPIQHQDWMSGKEFKCKVNNKDLPAPIERTISKPKGSVRAPQVYVLPPPEEEMTKKQVTLTCMVTDFMPEDIYVEWTNNGKTELNYKNTEPVLDSDGSYFMYSKLRVEKKNWVERNSYSCSVVHEGLHNHHTTKSFSRTPGK
light: QAVVTQPSSVSGSLGQSVSITCSGSSGNVGYGDYVSWFQQFHGSAPKLLIYGATNLASGVPARFSGSRSGNTATLTISSLHAEDEADYYCASYDSSSGGVFGSGTRLTVLGGQPKSSPSVTLFPPSSEELETNKATLVCTITDFYPGVVTVDWKVDGTPVTQGMETTQPSKQSNNKYMASSYLTLTARAWERHSSYSCQVTHEGHTVEKSLSRADCS
Kd [5]: 0.049 nM | koff [5]: 0.000152 s⁻¹ | kon [5]: 3.13e+06 M⁻¹ s⁻¹

B3: 3bD11 mAb (antibody)
chain: RVRLQGSGPSLVKPSQTLSLTCTVSGFSFDSYYVGWVRQAPGKALEWLGNIYSTGRAFYNPALKSRLSITRDTSKSQVSLSVSSVTIEDTALYYCVRGSYYHGGGNGMVDFFDYWSPGLLVTVSSEGKSSGASGESKVDDQVVRTQPSSVSGSLGQRVSITCSGSSSNVGYGNYVGWFQQVPGSAPKLLIYAATSRASGVPDRFSGSRSGNTATLTIDSLQAEDEADYYCSSYQRGNTGVFGSGTRLTVLG
Kd [5]: 1.49 nM | koff [5]: 0.00398 s⁻¹ | kon [5]: 2.67e+06 M⁻¹ s⁻¹

B4: CE3 mAb (antibody, mouse IgG2a, V domains shown)
VH: QVRLQESGPSLVKPSQTLSVTCTVSGFSLISNAVGWVRQAPGKVPESLAGCSSDGKCYYNSALKSRLDITRDTSKNQISLSLSSVTTDDAAVYYCTRGYYPVYGYDYLGTIDYWGPGLLVTVSS
VL: QAVLTQPSSVSGSLGQRVSITCSGSSSNVGRNDVAWFQQLPGSGLRTIIYGTTSRPSGIPDRFSGSKSGVTATLTIDSLQAEDEADYFCASGDSSAINDIFGSGTRLTVLG
notes: sheep-mouse IgG2a chimeric mAb
Kd [6]: 16.7 nM | koff [6]: 0.00172 s⁻¹ | kon [6]: 103000 M⁻¹ s⁻¹

B5: 3bG4 mAb (antibody, mouse IgG2a, V domains shown)
VH: QVQLQESGPSLVKPSQTLSLTCTISGFSLISNGVGWVRQAPGKVPEWVGDIASSGKAYSNPALKSRLSITRDTSKSQVSLSLRSVTTEDTAVYYCVRCRDGGVTYGYDIDYWGPGLLVTVSS
VL: QAVLTQPSSVSKSLGQSVSITCSGSTSNVGSGNDVSWFQQVPGSAPKLLFYGATNRASGVPDRFSGSRSGNTATLTITSLQAEDEADYYCGSYDSNSGGIFGSGTRLTVLG
notes: as for B4
Kd [5]: 0.065 nM | koff [5]: 0.000296 s⁻¹ | kon [5]: 4.54e+06 M⁻¹ s⁻¹

B6: 3aG3 mAb (antibody, V domains shown)
VH: QVQLQESGPSLVKPSQTLSLTCTVSGFSLSSNGVGWVRQAPGKVPEWVGDISSSGKAYANPALKSRLSITRDTAKTQVFLSLSSVTTEDTAVYYCVRCRDGGVSYGYDIDYWGPGLLVTVSS
VL: QAVLTQPPSVSGSPGQRVSITCSGSSSNIGGGNYLSWFQQVPGSAPKLLIYGATSRASGVPDRFSGSRSGNTATLTISSLQAEDEADYYCASFDTSSGGIFGAGTRLTVLG
Kd [5]: 0.31 nM | koff [5]: 0.00475 s⁻¹ | kon [5]: 1.53e+07 M⁻¹ s⁻¹

B7: MD9 mAb (antibody, V domains shown)
VH: QVRLQESGPSLVKSSQTLSLTCTVSGFSLTRESIAWVRQAPGKVPEWLGGVGIDGTSYYSPALKSRLSITRDTSKSQASLSLSSVATEDTAMYYCARNYIDFEYWGPGLLVTVSS
VL: QAVLTQLSSVSGSLGQRISITCSGSSSNVGIYDVSWFQQLPGSGLRTVIYGTNNRPSGVPDRFSGSRSGNTATLTISSLQSEDEAIYYCAAGDSSTIAVFGSGTRLTVLG
Kd [5]: 22 nM | koff [5]: 0.00146 s⁻¹ | kon [5]: 66200 M⁻¹ s⁻¹

B8: 412E10 mAb (antibody, mouse IgG2a, V domains shown)
VH: QVQLQESGPSLVKPSQTLSLTCTVSGFSVISDSVAWVRQAPGKVPEWLGASGSSGNKYYNPALKSRLSITRDTSKSQVSLSLSSVTTEDTAVYYCARGIIAGVDVWGRGLLVTVSS
VL: QAVLTQPSSVSGSLGQRVSITCSGSSSNVGYGNYVGWYQQVPGSAPKLLIYGTAIRASGVPDRFSGSRSGDTATLTITSLQAEDEADYYCASYQSNYAFFGSGTRLTVLG
notes: as for B4
Kd [6]: 9 nM | koff [6]: 0.015 s⁻¹ | kon [6]: 1.66e+06 M⁻¹ s⁻¹

B9: CE2 mAb (antibody, mouse IgG2a, V domains shown)
VH: QVQLQESGPSLVKPSQTLSLTCTVSGFSLTNYPVGWVRQAPGKALEWIGNIENDGSANYASALKSRLSITRDTSKNQVSLSLSSATTEDTAVYYCGREFGGSDGYTYFVDIDYWGPGLLVTVSS
VL: QAVLTQPSSVSKSLGQSVSITCSGSSSNVGYGNYVSWFQQVPGSAPKILIYGATSRASGVPDRFSGSRSGNTATLTITSLQAEDEADYYCASYDGSSSGVFGSGTRLTVLG
notes: as for B4
Kd [6]: 11 nM | koff [6]: 0.00522 s⁻¹ | kon [6]: 458000 M⁻¹ s⁻¹

B10: E1B8 mAb (antibody, V domains shown)
VH: QVQLQESGPSLVKPSQTLSLTCTVSGFSLTNYPVGWVRQAPGKALEWIGNIENDGSANYASALKSRLSITRDTSKNQVSLSLSSATTEDTAVYYCGREFGGSDGYTYFVDIDYWGPGLLVTVSS
VL: QAVLTQPSSVSKSLGQSVSITCSGSSSNVGYGNYVSWFQQVPGSAPKILIYGATSRASGVPDRFSGSRSGNTATLTITSLQAEDEADYYCASYDGSSSGVFGSGTRLTVLG
Kd [5]: 4.22 nM | koff [5]: 0.00137 s⁻¹ | kon [5]: 324000 M⁻¹ s⁻¹

B11: S1E12 scAb (scFv, not shown: small tags and cut ends)
scFv: QVQLQESGPSLVKPSQTLSLTCTVSGFSLGSNSVGWVRQAPGKAPEWVAGIDTDGEEGYNPALNSRLSITRDTSKSQVSLSLSSVTSEDTAVYYCGRSYRADGLAYGYVQAIDYWGPGLLVTVSSEGKSSGASGESKVDDRVVRTQPSSVSGSLGQRVSITCSGSFIGISSVGWFQQLPGSGLRTIIVASDGRPSGVPDRFSMSKSGNTATLTISSLQAEDEADYFCGSSDRTQYTGVFGSGTRLTVLG
notes: scAb
Kd [2]: 0.829 nM | Kd [3]: 0.829 nM | koff [3]: 0.000319 s⁻¹ | kon [3]: 385000 M⁻¹ s⁻¹ | Kd [7]: 0.543 nM | koff [7]: 0.00163 s⁻¹ | kon [7]: 2.99e+06 M⁻¹ s⁻¹
